Data: patent US20190055316A1 (published 2019)

Tests used:
158.3 [1] = assay: Biacore
151 [2] = assay: Biacore
2.69 LC2 = assay: Biacore
158.3 [3] = assay: KinExA
151 [4] = assay: KinExA

Kd (158.3 [1]) | Kd 151 [2] | Kd (2.69 LC2) | Kd (158.3 [3]) | Kd 151 [4] | Binder
2.4 nM | 17.4 nM | 0.228 nM | – | – | Soluble human MSLN (other) EVEKTACPSGKKAREIDESLIFYKKWELEACVDAALLATQMDRVNAIPFTYEQLDVLKHKLDELYPQGYPESVIQHLGYLFLKMSPEDIRKWNVTSLETLKALLEVNKGHEMSPQAPRRPLPQVATLIDRFVKGRGQLDKDTLDTLTAFYPGYLCSLSPEELSSVPPSSIWAVRPQDLDTCDPRQLDVLYPKARLAFQNMNGSEYFVKIQSFLGGAPTEDLKALSQQNVSMDLATFMKLRTDAVLPLTVAEVQKLLGPHVEGLKAEERHRPVRDWILRQRQDDLDTLGLGLQGGIPNGYLVLDLSMQEALS
– | – | – | 0.0122 nM | 0.03 nM | Native hu MSLN (cells) (other) EVEKTACPSGKKAREIDESLIFYKKWELEACVDAALLATQMDRVNAIPFTYEQLDVLKHKLDELYPQGYPESVIQHLGYLFLKMSPEDIRKWNVTSLETLKALLEVNKGHEMSPQAPRRPLPQVATLIDRFVKGRGQLDKDTLDTLTAFYPGYLCSLSPEELSSVPPSSIWAVRPQDLDTCDPRQLDVLYPKARLAFQNMNGSEYFVKIQSFLGGAPTEDLKALSQQNVSMDLATFMKLRTDAVLPLTVAEVQKLLGPHVEGLKAEERHRPVRDWILRQRQDDLDTLGLGLQGGIPNGYLVLDLSMQEALS
